Key:
Test in all cases: cell_activity; T cells, mostly above 70%
Details in all cases: tags: SV40 NLS; FokI fusion
CD38 (1) left V2 TALEN = biological target: T1, CD38 (1) left V2 TALEN (synthetic, UniProt Q56830 SEQ:15-719)
T1 chain: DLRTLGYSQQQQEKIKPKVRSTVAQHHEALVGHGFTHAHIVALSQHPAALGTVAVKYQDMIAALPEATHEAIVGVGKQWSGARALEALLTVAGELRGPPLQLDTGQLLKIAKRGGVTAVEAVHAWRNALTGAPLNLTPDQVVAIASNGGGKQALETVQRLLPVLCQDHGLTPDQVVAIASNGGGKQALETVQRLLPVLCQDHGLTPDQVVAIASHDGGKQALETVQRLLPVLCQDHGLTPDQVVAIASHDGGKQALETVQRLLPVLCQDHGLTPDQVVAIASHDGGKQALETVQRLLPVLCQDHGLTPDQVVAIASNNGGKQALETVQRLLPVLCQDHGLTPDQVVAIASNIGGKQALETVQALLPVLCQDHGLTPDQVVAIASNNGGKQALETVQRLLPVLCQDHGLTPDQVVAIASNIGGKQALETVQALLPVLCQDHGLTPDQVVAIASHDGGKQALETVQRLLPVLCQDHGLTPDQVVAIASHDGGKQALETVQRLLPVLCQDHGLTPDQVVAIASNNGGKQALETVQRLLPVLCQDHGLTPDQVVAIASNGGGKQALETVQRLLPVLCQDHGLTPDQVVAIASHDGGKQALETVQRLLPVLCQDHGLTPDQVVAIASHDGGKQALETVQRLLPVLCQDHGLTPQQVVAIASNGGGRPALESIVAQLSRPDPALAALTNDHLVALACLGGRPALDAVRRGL

CISH (3) right V2 TALEN = biological target: T2, CISH (3) right V2 TALEN (synthetic, UniProt Q56830 SEQ:15-719)
T2 chain: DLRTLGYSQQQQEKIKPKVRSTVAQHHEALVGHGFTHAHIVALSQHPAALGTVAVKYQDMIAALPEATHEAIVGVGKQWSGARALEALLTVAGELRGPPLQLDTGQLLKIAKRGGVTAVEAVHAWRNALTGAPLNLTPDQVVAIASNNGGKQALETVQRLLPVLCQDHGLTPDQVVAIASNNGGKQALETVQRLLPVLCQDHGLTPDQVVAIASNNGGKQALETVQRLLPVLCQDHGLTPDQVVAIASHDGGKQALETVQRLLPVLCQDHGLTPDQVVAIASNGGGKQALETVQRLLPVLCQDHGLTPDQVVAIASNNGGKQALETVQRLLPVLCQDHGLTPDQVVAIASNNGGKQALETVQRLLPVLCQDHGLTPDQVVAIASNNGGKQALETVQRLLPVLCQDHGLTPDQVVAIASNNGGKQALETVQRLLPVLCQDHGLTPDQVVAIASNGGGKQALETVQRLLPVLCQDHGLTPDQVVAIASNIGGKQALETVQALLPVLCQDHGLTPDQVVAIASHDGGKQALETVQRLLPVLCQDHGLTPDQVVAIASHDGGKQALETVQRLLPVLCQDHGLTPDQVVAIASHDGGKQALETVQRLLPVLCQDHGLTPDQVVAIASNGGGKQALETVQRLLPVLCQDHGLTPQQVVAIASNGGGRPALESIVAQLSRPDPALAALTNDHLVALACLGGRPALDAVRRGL

IgH (1) right V2 TALEN = biological target: T3, IgH (1) right V2 TALEN (synthetic, UniProt Q56830 SEQ:15-719)
T3 chain: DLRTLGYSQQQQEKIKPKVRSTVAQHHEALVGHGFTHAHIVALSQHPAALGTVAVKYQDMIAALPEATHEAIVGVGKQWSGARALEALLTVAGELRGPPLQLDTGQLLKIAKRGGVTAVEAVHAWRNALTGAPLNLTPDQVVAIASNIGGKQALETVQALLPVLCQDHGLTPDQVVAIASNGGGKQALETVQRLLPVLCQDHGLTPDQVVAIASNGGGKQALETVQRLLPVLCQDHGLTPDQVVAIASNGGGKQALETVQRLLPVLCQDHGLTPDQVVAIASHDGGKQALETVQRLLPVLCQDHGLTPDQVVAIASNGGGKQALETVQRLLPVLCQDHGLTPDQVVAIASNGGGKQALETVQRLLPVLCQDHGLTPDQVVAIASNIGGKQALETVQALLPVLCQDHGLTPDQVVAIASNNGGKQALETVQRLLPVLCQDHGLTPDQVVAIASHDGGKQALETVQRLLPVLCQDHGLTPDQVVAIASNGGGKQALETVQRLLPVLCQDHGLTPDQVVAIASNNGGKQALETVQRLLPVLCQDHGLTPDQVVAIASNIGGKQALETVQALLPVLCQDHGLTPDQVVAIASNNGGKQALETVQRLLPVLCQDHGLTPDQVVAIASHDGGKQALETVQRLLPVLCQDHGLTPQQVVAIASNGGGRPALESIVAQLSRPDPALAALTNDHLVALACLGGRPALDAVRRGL

IgH (1) left V2 TALEN = biological target: T4, IgH (1) left V2 TALEN (synthetic, UniProt Q56830 SEQ:15-719)
T4 chain: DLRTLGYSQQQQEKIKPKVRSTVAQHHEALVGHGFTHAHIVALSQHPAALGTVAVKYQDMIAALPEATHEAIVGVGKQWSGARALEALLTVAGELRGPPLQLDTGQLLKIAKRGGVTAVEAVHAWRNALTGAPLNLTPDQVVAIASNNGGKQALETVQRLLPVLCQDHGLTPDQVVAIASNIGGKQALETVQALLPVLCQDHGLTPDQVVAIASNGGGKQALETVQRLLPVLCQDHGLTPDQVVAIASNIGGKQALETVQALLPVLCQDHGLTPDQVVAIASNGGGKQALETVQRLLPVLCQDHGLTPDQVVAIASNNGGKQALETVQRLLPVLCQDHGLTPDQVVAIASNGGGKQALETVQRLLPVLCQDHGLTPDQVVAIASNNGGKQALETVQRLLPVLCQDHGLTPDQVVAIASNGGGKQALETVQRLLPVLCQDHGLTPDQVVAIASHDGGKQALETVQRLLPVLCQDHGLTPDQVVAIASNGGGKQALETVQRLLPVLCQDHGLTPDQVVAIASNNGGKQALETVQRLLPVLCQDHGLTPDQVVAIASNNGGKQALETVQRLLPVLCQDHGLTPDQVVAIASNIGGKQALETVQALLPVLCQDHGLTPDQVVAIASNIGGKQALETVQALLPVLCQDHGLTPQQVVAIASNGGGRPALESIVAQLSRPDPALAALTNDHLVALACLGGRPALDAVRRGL

CD38 (1) right V2 TALEN = biological target: T5, CD38 (1) right V2 TALEN (synthetic, UniProt Q56830 SEQ:15-719)
T5 chain: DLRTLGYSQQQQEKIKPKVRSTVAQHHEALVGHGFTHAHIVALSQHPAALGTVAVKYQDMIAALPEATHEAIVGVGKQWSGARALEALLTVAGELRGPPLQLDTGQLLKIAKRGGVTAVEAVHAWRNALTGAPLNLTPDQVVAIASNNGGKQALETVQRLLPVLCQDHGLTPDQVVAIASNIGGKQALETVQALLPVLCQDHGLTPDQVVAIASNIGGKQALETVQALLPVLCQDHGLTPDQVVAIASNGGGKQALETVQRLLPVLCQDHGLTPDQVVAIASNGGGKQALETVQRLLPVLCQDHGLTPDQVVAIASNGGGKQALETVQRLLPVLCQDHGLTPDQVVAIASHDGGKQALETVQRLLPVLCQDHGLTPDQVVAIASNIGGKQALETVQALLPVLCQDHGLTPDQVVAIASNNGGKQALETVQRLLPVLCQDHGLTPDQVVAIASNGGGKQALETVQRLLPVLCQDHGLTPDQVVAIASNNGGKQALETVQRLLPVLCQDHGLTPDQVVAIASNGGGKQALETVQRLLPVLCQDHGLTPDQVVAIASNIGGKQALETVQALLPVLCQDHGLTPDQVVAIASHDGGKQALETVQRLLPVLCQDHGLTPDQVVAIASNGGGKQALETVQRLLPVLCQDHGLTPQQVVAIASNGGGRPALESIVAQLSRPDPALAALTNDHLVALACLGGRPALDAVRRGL

CD38 (2) left V2 TALEN = biological target: T6, CD38 (2) left V2 TALEN (synthetic, UniProt Q56830 SEQ:15-719)
T6 chain: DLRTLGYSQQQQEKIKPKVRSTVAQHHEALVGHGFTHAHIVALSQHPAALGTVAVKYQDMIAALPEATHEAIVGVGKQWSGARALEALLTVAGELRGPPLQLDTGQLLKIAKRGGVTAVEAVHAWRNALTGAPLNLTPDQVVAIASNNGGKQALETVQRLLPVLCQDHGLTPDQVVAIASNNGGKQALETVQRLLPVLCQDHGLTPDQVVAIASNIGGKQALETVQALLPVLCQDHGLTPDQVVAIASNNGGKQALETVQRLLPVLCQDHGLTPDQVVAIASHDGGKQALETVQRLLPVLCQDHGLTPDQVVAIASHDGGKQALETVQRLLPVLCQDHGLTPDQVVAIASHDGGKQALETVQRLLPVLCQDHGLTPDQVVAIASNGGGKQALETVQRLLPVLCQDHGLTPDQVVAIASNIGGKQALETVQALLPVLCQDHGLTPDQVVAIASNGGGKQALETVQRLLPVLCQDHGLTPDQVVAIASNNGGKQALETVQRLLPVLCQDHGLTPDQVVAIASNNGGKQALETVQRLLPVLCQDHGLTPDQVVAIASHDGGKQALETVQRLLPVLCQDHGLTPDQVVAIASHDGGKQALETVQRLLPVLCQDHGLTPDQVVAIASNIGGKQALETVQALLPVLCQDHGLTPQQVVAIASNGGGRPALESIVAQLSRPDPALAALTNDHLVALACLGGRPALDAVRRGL

CD38 (2) right V2 TALEN = biological target: T7, CD38 (2) right V2 TALEN (synthetic, UniProt Q56830 SEQ:15-719)
T7 chain: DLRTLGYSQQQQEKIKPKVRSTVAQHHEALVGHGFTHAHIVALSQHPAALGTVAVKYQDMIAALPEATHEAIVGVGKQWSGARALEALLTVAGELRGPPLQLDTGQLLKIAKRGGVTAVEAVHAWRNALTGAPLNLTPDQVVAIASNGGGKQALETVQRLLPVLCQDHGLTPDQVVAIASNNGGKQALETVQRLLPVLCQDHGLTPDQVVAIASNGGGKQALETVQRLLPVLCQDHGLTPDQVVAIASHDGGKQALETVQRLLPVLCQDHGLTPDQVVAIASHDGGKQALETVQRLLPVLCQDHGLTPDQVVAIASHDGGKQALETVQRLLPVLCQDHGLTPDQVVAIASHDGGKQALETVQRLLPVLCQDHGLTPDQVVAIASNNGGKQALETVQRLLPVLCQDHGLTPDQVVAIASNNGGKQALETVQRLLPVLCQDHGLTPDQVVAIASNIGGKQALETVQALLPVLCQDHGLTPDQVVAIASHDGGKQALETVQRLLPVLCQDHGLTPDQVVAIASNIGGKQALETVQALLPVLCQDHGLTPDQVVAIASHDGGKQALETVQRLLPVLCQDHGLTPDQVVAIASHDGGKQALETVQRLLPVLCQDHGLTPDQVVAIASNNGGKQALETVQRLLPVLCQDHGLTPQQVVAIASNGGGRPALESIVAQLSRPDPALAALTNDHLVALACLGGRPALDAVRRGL

B1: CD38 (1) left half-site (dsDNA)
DNA 1: TTTCCCGAGACCGTCCT
DNA 2: AGGACGGTCTCGGGAAA
B1 was tested, and the activity (CD38 (1) left V2 TALEN) was over 50 % indels.

B2: CISH (3) right half-site (dsDNA)
DNA 1: GAGGGTACCCCAGCCCA
DNA 2: TGGGCTGGGGTACCCTC
For B2, the activity (CISH (3) right V2 TALEN) was over 50 % indels.

B3: IgH (1) right half-site (dsDNA)
DNA 1: AGCTCAGCTAAGAAATA
DNA 2: TATTTCTTAGCTGAGCT
In the case of B3, the activity (IgH (1) right V2 TALEN) is reported as over 50 % indels.

B4: IgH (1) left half-site (dsDNA)
DNA 1: TGATATGTGTCTGGAAT
DNA 2: ATTCCAGACACATATCA
In the case of B4, the activity (IgH (1) left V2 TALEN) is reported as over 50 % indels.

B5: CD38 (1) right half-site (dsDNA)
DNA 1: AAGTACACTGAAATTCA
DNA 2: TGAATTTCAGTGTACTT
For B5, the activity (CD38 (1) right V2 TALEN) was over 50 % indels.

B6: CD38 (2) left half-site (dsDNA)
DNA 1: TGGAGCCCTATGGCCAA
DNA 2: TTGGCCATAGGGCTCCA
In the case of B6, the activity (CD38 (2) left V2 TALEN) is reported as over 50 % indels.

B7: CD38 (2) right half-site (dsDNA)
DNA 1: CCGGTGTCCGGGGACAA
DNA 2: TTGTCCCCGGACACCGG
B7 was tested, and the activity (CD38 (2) right V2 TALEN) was over 50 % indels.

Reference: patent US20250002945, “NEW TALE PROTEIN SCAFFOLDS WITH IMPROVED ON-TARGET/OFF-TARGET ACTIVITY RATIOS” (CELLECTIS SA, published 2025)
